B1: IKK2 (2-664) (protein)
chain: SWSPSLTTQTCGAWEMKERLGTGGFGNVIRWHNQETGEQIAIKQCRQELSPRNRERWCLEIQIMRRLTHPNVVAARDVPEGMQNLAPNDLPLLAMEYCQGGDLRKYLNQFENCCGLREGAILTLLSDIASALRYLHENRIIHRDLKPENIVLQQGEQRLIHKIIDLGYAKELDQGSLCTSFVGTLQYLAPELLEQQKYTVTVDYWSFGTLAFECITGFRPFLPNWQPVQWHSKVRQKSEVDIVVSEDLNGTVKFSSSLPYPNNLNSVLAERLEKWLQLMLMWHPRQRGTDPTYGPNGCFKALDDILNLKLVHILNMVTGTIHTYPVTEDESLQSLKARIQQDTGIPEEDQELLQEAGLALIPDKPATQCISDGKLNEGHTLDMDLVFLFDNSKITYETQISPRPQPESVSCILQEPKRNLAFFQLRKVWGQVWHSIQTLKEDCNRLQQGQRAAMMNLLRNNSCLSKMKNSMASMSQQLKAKLDFFKTSIQIDLEKYSEQTEFGITSDKLLLAWREMEQAVELCGRENEVKLLVERMMALQTDIVDLQRSPMGRKQGGTLDDLEEQARELYRRLREKPRDQRTEGDSQEMVRLLLQAIQSFEKKVRVIYTQLSKTVVCKQKALELLPKVEEVVSLMNEDEKTVVRLQEKRQKELWNLLKIACSK

Key:
[1] = system: hTERT (191-306), purified
[2] = target: T1, hTERT (191-306), purified
T1 chain: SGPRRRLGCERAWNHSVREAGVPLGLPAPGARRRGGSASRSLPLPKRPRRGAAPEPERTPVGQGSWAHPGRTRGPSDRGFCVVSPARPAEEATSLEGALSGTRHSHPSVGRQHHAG

| Molecule | in vitro kinase assay; phosphorylation site found by mass spectrometry and by Western blotting with Anti-hTERT pT249 [1] | in vitro kinase assay (negative control); phosphorylation sites found by mass spectrometry [2] |
| --- | --- | --- |
| CDK1-cyclin B (New England Biolabs) | pT249 was detected from only a sample treated with CDK1 |  |
| B1 |  | pS206, pS274, pT283 and the like were detected from a sample treated with IKK2 |

Source: patent US20230124973
